# Patent publication US20040043959A1, “Combination therapies for treating methylthioadenosine phosphorylase deficient cells” (priority 2002, published 2004)
# Columns and labels:
# Assay in all cases: MTAP substrate assay, coupled spectrophotometric (adenine, xanthine oxidase)
# Assay type in all cases: biochemical, human
# Conditions in all cases: other: substrate of MTAP, 37° C.
# [1] = substrate: CC(C)(C)SC[C@H]1O[C@@H](n2cnc3c(N)ncnc32)[C@H](O)[C@@H]1O
# Protocol: (§1) An enzymatic assay to determine the activity of MTAP against a given substrate was performed. Human MTAP containing an N-terminal six-histidine tag was expressed in E. coli BL21 DE3 cells. The protein was purified to homogeneity by Ni2+ affinity chromatography. Enzymatic activity was measured using a coupled spectrophotometric assay designed to monitor the reaction product adenine (Savarese, T. M., Crabtree, G. W., and Parks, R. E. Jr., (1980) Biochem. Pharmacol. 30, 189-199). Various concentrations of the indicated 5′-deoxymethylthio adenosine (MTA) or substrate were incubated in assay buffer (40 mM potassium phosphate buffer, 1 mM, and DTT 0.8 units/ml xanthine oxidase coupling enzyme) for 5 minutes at 37° C. The reaction was initiated by the addition of MTAP. The exact concentration of enzyme used varied for each substrate tested and ranged from 2 nM to 500 nM. Activity as a function of enzyme concentration was determined for each substrate tested to ensure that the appropriate enzyme concentration was used. Activity was detected by continuous monitoring of absorbance at 305 nm for 10 minutes (ΔE=15,500 M^−1).
# (§2) Library compounds (10 and 50 uM) were tested using the assay described above with 2 nM MTAP enzyme. The resultant initial velocities are reported as a percentage of the initial velocity observed when MTA is the substrate. MTA controls, 10 and 50 uM concentrations, were run on each plate alongside the library compounds.
# [2] = substrate: CCSC[C@H]1O[C@@H](n2cnc3c(N)ncnc32)[C@H](O)[C@@H]1O
# Protocol: as §1, §2
# [3] = substrate: CSC[C@@H]1C[C@@H](O)[C@H](n2cnc3c(N)ncnc32)O1
# Protocol: as §1, §2
# [4] = substrate: CSC[C@H]1O[C@@H](n2cnc3c(N)ncnc32)C[C@@H]1O
# Protocol: as §1, §2
# [5] = substrate: CSC[C@H]1O[C@@H](n2cnc3c(N)ncnc32)[C@H](N=[N+]=[N-])[C@@H]1O
# Protocol: as §1, §2
# [6] = substrate: Cc1ccccc1SC[C@H]1O[C@@H](n2cnc3c(N)ncnc32)[C@H](O)[C@@H]1O
# Protocol: as §1, §2
# [7] = substrate: Nc1ncnc2c1ncn2[C@@H]1O[C@H](C(=O)NCCO)[C@@H](O)[C@H]1O
# Protocol: as §1, §2
# [8] = substrate: Nc1ncnc2c1ncn2[C@@H]1O[C@H](CCc2ccccc2)[C@@H](O)[C@H]1O
# Protocol: as §1, §2
# [9] = substrate: Nc1ncnc2c1ncn2[C@@H]1O[C@H](CNCc2ccc(F)cc2)[C@@H](O)[C@H]1O
# Protocol: as §1, §2
# [10] = substrate: Nc1ncnc2c1ncn2[C@@H]1O[C@H](CNc2ccccc2)[C@@H](O)[C@H]1O
# Protocol: as §1, §2
# [11] = substrate: Nc1ncnc2c1ncn2[C@@H]1O[C@H](CSC2CCCCC2)[C@@H](O)[C@H]1O
# Protocol: as §1, §2
# [12] = substrate: Nc1ncnc2c1ncn2[C@@H]1O[C@H](CSCCO)[C@@H](O)[C@H]1O
# Protocol: as §1, §2
# [13] = substrate: Nc1ncnc2c1ncn2[C@@H]1O[C@H](CSCCc2ccccc2)[C@@H](O)[C@H]1O
# Protocol: as §1, §2
# [14] = substrate: Nc1ncnc2c1ncn2[C@@H]1O[C@H](CSCc2ccccc2)[C@@H](O)[C@H]1O
# Protocol: as §1, §2
# [15] = substrate: Nc1ncnc2c1ncn2[C@@H]1O[C@H](CSc2ccncc2)[C@@H](O)[C@H]1O
# Protocol: as §1, §2
# [16] = substrate: Nc1ncnc2c1ncn2[C@@H]1O[C@H](CSc2nccs2)[C@@H](O)[C@H]1O
# Protocol: as §1, §2
protein,measurement,setting,value
"Human MTAP (Homo sapiens) (protein, six-histidine tag (His6) (N); made in house; host or cells: E. coli BL21 DE3) MASGTTTTAVKIGIIGGTGLDDPEILEGRTEKYVDTPFGKPSDALILGKIKNVDCVLLARHGRQHTIMPSKVNYQANIWALKEEGCTHVIVTTACGSLREEIQPGDIVIIDQFIDRTTMRPQSFYDGSHSCARGVCHIPMAEPFCPKTREVLIETAKKLGLRCHSKGTMVTIEGPRFSSRAESFMFRTWGADVINMTTVPEVVLAKEAGICYASIAMATDYDCWKEHEEAVSVDRVLKTLKENANKAKSLLLTTIPQIGSTEWSETLHNLKNMAQFSVLLPRH",Km,[1],17 µM
same,kcat,[1],0.85 s⁻¹
same,Km,[2],1.8 µM
same,kcat,[2],2.9 s⁻¹
same,Km,[3],3.9 µM
same,kcat,[3],0.004 s⁻¹
same,Km,[4],3.3 µM
same,kcat,[4],0.76 s⁻¹
same,Km,[5],3600 µM
same,kcat,[5],0.04 s⁻¹
same,Km,[6],5.6 µM
same,kcat,[6],0.175 s⁻¹
same,Km,[7],1000 µM
same,kcat,[7],3 s⁻¹
same,Km,[8],1.3 µM
same,kcat,[8],4.6 s⁻¹
same,Km,[9],145 µM
same,kcat,[9],0.089 s⁻¹
same,Km,[10],8.5 µM
same,kcat,[10],2.02 s⁻¹
same,Km,[11],3.5 µM
same,kcat,[11],1.57 s⁻¹
same,Km,[12],25 µM
same,kcat,[12],1.46 s⁻¹
same,Km,[13],5 µM
same,kcat,[13],2.14 s⁻¹
same,Km,[14],4.65 µM
same,kcat,[14],2.5 s⁻¹
same,Km,[15],0.88 µM
same,kcat,[15],0.23 s⁻¹
same,Km,[16],3.4 µM
same,kcat,[16],2.49 s⁻¹
